From US20190338002A1 (Pieris, published 2019)
Numbering of substitutions follows the chain as printed.

Legend:
[1] = target: T1, rat beta CGRP (SEQ ID NO: 83) (rat, not fully specified); test: SPR Biacore 37 °C, mutein captured as ligand, sample PL1830 (rb CGRP) injected, 1:1 fit; repeat run 130903_NAN-DS-058 (not the run of Table 2) [contd]
T1 construct: also called rat βCGRP; rat β-CGRP
T1 peptide: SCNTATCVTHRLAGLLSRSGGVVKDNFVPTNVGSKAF
Description: (§1) The Biotin CAPture Kit (GE Healthcare) was used to immobilize biotinylated lipocalin muteins to a chip surface. Muteins were biotinylated using standard NHS chemistry. Undiluted Biotin CAPture Reagent (streptavidin conjugated with ss-DNA oligo) was captured on a Sensor Chip CAP with the pre-immobilized complementary ss-DNA oligo. Thereafter, biotinylated muteins at 1 μg/mL were applied for 300 s at a flow rate of 5 μL/min.
(§2) CGRP species were applied in three concentrations of 30 nM, 3 nM and 0.3 nM at a flow rate of 30 μL/min or in a single concentration of 25 nM per cycle as shown in FIG. 2. The dilutions were injected with association times of 180 s and dissociation times of 5400 sec to obtain ka and kd information. Regeneration of the chip surface was achieved by injecting 6 M Guanidinium-HCl+0.25 M NaOH (120 s) with a flow rate of 10 μL/min. […]
(§3) The data were double-referenced by subtraction of the corresponding signals measured for the control channel (loaded with Biotin CAPture reagent only) and by subtraction of buffer injections from the binding responses. Association rate constant ka and dissociation rate constant kd for the binding reaction were determined using Biacore T200 Evaluation Software V2.0 for data processing and kinetic fitting. […]

[2] = target: T1, rat beta CGRP (SEQ ID NO: 83); test: SPR Biacore 37 °C, mutein captured as ligand, rb CGRP (1-37) injected, 1:1 fit; repeat run 130208_NAN-DS-047 (not the run of Table 2) [contd]
Description: as §1
(§4) CGRP species were applied in three concentrations of 30 nM, 3 nM and 0.3 nM at a flow rate of 30 μL/min or in a single concentration of 25 nM per cycle as shown in FIG. 2. The dilutions were injected with association times of 180 s and dissociation times of 5400 sec to obtain ka and kd information. Regeneration of the chip surface was achieved by injecting 6 M Guanidinium-HCl+0.25 M NaOH (120 s) with a flow rate of 10 μL/min. Injection of regeneration solutions was followed by an extra wash step with HBS-EP+(1×; BR-1006-69; GE Healthcare) running buffer and a stabilization period of 120 s.
(§5) The data were double-referenced by subtraction of the corresponding signals measured for the control channel (loaded with Biotin CAPture reagent only) and by subtraction of buffer injections from the binding responses. Association rate constant ka and dissociation rate constant kd for the binding reaction were determined using Biacore T200 Evaluation Software V2.0 for data processing and kinetic fitting. The data were globally fit with 1:1 binding model.

[3] = target: T2, human alpha CGRP (SEQ ID NO: 80) (human, not fully specified); test: SPR Biacore 37 °C, mutein captured as ligand, sample PL1827 (ha CGRP) injected, 1:1 fit; repeat run 130903_NAN-DS-058 (not the run of Table 2) [contd]
T2 construct: also called human αCGRP; hαCGRP
T2 peptide: T1 peptide with S1A, N3D, D25N
Description: as §1, §4, §5

[4] = target: T3, human beta CGRP (SEQ ID NO: 81) (human, not fully specified); test: SPR Biacore 37 °C, mutein captured as ligand, sample PL1828 (hb CGRP) injected, 1:1 fit; repeat run 130903_NAN-DS-058 (not the run of Table 2) [contd]
T3 construct: also called human βCGRP; hβCGRP
T3 peptide: T1 peptide with S1A, V22M, D25S
Description: as §1, §2, §3

[5] = target: T4, rat alpha CGRP (SEQ ID NO: 82) (rat); test: SPR Biacore 37 °C, mutein captured as ligand, sample PL1829 (ra CGRP) injected, 1:1 fit; repeat run 130903_NAN-DS-058 (not the run of Table 2) [contd]
T4 construct: also called rat αCGRP; rat α-CGRP
T4 peptide: T1 peptide with K35E
Description: as §1, §2, §3

[6] = target: T2, human alpha CGRP (SEQ ID NO: 80); test: cell-based or functional assay
[7] = target: T1, rat beta CGRP (SEQ ID NO: 83); test: cell-based or functional assay
[8] = target: T4, rat alpha CGRP (SEQ ID NO: 82); test: cell-based or functional assay
[9] = target: T3, human beta CGRP (SEQ ID NO: 81); test: cell-based or functional assay
[10] = target: T3, human beta CGRP (SEQ ID NO: 81); test: SPR Biacore 37 °C, mutein captured as ligand, hb CGRP (1-37) injected, 1:1 fit; repeat run 130208_NAN-DS-047 (not the run of Table 2) [contd]
Description: as §1, §4, §5

[11] = target: T1, rat beta CGRP (SEQ ID NO: 83); test: SPR Biacore 37 °C, mutein captured as ligand, rb CGRP sample PL1830 injected, 1:1 fit; repeat run 130903_NAN-DS-058 (not the run of Table 2) [contd]
[12] = target: T2, human alpha CGRP (SEQ ID NO: 80); test: SPR, 37 C, mutein captured, CGRP analyte
How it was run: (§6)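 Biotinylated lipocalin muteins were captured on streptavidin-oligo CAP chip, and CGRP was injected at 30, 3 and 0.3 nM or at a single 25 nM at 37 °C (180 s association, 5400 s dissociation) in HBS-EP+. Double-referenced sensorgrams were globally fit to a 1:1 model for ka and kd.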

[13] = target: T1, rat beta CGRP (SEQ ID NO: 83); test: SPR, 37 C, mutein captured, CGRP analyte
How it was run: as §6

[14] = target: T4, rat alpha CGRP (SEQ ID NO: 82); test: SPR, 37 C, mutein captured, CGRP analyte
How it was run: as §6

[15] = target: T3, human beta CGRP (SEQ ID NO: 81); test: SPR, 37 C, mutein captured, CGRP analyte
How it was run: as §6

[16] = target: T4, rat alpha CGRP (SEQ ID NO: 82); test: SPR Biacore 37 °C, mutein captured as ligand, ra CGRP (1-37) injected, 1:1 fit; repeat run 130208_NAN-DS-047 (not the run of Table 2) [contd]
Description: as §1, §4, §5

[17] = target: T2, human alpha CGRP (SEQ ID NO: 80); test: SPR Biacore 37 °C, mutein captured as ligand, ha CGRP (1-37) injected, 1:1 fit; repeat run 130208_NAN-DS-047 (not the run of Table 2) [contd]
Description: as §1, §4, §5

B1: lipocalin mutein SEQ ID NO: 11 (designed binder)
chain: QDSTSDLIPAPPLSKVPLQQNFQDNQFHGKWYVVGWAGNTLLREDKDPIKMQAIIYELKEDRSYNVTWVYFSEKKCNYHIETFVPGSQPGEFTLGTIKSYPGETPILVRVVSTNYNQHAMVFFKGVNQNREIFEIILYGRTKELTNELKENFIRFSKSLGLPENHIVFPVPIDQCIDGSAWSHPQFEK
notes: biotinylated by NHS chemistry for capture in SPR
- kon [1]: 1.75e+06 M⁻¹ s⁻¹
- koff [2]: 5.56e-05 s⁻¹
- kon [2]: 969000 M⁻¹ s⁻¹
- koff [3]: 6.55e-05 s⁻¹
- kon [3]: 1.76e+06 M⁻¹ s⁻¹
- koff [4]: 3.73e-05 s⁻¹
- kon [4]: 2.41e+06 M⁻¹ s⁻¹
- koff [5]: 8.08e-05 s⁻¹
- kon [5]: 1.58e+06 M⁻¹ s⁻¹
- IC50, CGRP-induced cAMP production, SK-N-MC cells [6]: 0.11 nM
- IC50, CGRP-induced cAMP production, L6 cells [7]: 0.06 nM
- IC50, CGRP-induced cAMP production, L6 cells [8]: 0.08 nM
- IC50, CGRP-induced cAMP production, SK-N-MC cells [9]: 0.22 nM
- koff [10]: 4.61e-05 s⁻¹
- kon [10]: 4.14e+06 M⁻¹ s⁻¹
- koff [11]: 6.38e-05 s⁻¹
- Kd [12]: 0.015 nM
- koff [12]: 4.55e-05 s⁻¹
- kon [12]: 3.08e+06 M⁻¹ s⁻¹
- Kd [13]: 0.042 nM
- koff [13]: 7.3e-05 s⁻¹
- kon [13]: 1.74e+06 M⁻¹ s⁻¹
- Kd [14]: 0.08 nM
- koff [14]: 7.6e-05 s⁻¹
- kon [14]: 984000 M⁻¹ s⁻¹
- Kd [15]: 0.007 nM
- koff [15]: 5.63e-05 s⁻¹
- kon [15]: 7.91e+06 M⁻¹ s⁻¹
- koff [16]: 7.72e-05 s⁻¹
- kon [16]: 867000 M⁻¹ s⁻¹
- koff [17]: 5.31e-05 s⁻¹
- kon [17]: 2.02e+06 M⁻¹ s⁻¹
